Source: patent US20220389118A1 (Chugai, published 2022)
Positions count from the first letter of the chain named. Names may count otherwise. Blank lines part the entries; values can stand above or below the binder they belong to.

Columns and labels:
[1] = biological target: T1, human FcγRIa extracellular domain with C-terminal His tag (human, UniProt P12314 16-292); assay: SPR (Biacore), binding amount
T1 construct: extracellular domain; also called FcgRIa

[2] = biological target: T2, human FcγRIIa type R extracellular domain with C-terminal His tag (human, UniProt P12318 34-217); assay: SPR (Biacore), binding amount
T2 construct: extracellular domain; also called FcγRIIaR; FcgRIIaR
T2 sequence (looked up): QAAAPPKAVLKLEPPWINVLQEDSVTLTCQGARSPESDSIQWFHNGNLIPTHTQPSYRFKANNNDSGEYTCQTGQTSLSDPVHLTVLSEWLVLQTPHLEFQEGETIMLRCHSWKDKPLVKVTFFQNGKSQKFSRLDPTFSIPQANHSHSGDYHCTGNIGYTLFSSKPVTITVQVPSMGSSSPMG

[3] = biological target: T3, human FcγRIIa type H extracellular domain with C-terminal His tag (human, UniProt P12318 34-217); assay: SPR (Biacore), binding amount
T3 construct: extracellular domain; also called FcγRIIaH; FcgRIIaH
T3 sequence (looked up): T2 sequence (looked up) with R134H

[4] = biological target: T4, human FcγRIIb extracellular domain with C-terminal His tag (human, UniProt P31994 43-217); assay: SPR (Biacore), binding amount
T4 construct: extracellular domain; also called FcgRIIb
T4 sequence (looked up): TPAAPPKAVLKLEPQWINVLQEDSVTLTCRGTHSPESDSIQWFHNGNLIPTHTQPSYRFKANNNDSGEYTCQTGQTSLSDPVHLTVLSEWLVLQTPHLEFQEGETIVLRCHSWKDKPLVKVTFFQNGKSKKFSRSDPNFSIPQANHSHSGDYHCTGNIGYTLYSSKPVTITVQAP

[5] = biological target: T5, human FcγRIIIa type V extracellular domain with C-terminal His tag (human, UniProt P08637 17-208); assay: SPR (Biacore), binding amount
T5 construct: extracellular domain; also called FcγRIIIaV; FcgRIIIaV
T5 sequence (P08637 17-208 F176V): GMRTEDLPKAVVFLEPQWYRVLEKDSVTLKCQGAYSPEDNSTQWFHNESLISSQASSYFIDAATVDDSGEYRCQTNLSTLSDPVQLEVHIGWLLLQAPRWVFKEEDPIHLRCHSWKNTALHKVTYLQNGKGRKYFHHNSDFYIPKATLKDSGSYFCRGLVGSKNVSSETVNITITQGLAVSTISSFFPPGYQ

[6] = biological target: T6, human FcγRIIa type R extracellular domain with C-terminal His tag (human, UniProt P12318 34-217); assay: SPR, amount of binding
T6 construct: extracellular domain; also called FcγRIIaR; FcγRIIa R
T6 sequence (looked up): T2 sequence (looked up)
Description: (§1) These variants were expressed and purified by the method of Reference Example 2. These Fc variants are called PD variants. Interactions of each PD variant with FcγRIIa type R and FcγRIIb were comprehensively evaluated by the method of Reference Example 25.

[7] = biological target: T7, human FcγRIIb extracellular domain with C-terminal His tag (human, UniProt P31994 43-217); assay: SPR, amount of binding
T7 construct: extracellular domain; for crystals expressed with kifunensine and trimmed with Endo F1; also called FcγRIIb extracellular region
T7 sequence (looked up): T4 sequence (looked up)
Description: as §1

[8] = biological target: T8, human IgE (human); assay: SPR (Biacore T200), human IgE held on SA chip by biotinylated GPC3 peptide, antibody as analyte, 37 C; pH5.8, 3 µM Ca; pH 5.8
T8 construct: Recombinant human IgE used as the antigen; its variable region is from an anti-human glypican 3 antibody; held on the chip by a biotinylated GPC3 peptide; also called hIgE
T8 sequence (heavy, as listed by the source, chain 1 of 2, other chains not shown): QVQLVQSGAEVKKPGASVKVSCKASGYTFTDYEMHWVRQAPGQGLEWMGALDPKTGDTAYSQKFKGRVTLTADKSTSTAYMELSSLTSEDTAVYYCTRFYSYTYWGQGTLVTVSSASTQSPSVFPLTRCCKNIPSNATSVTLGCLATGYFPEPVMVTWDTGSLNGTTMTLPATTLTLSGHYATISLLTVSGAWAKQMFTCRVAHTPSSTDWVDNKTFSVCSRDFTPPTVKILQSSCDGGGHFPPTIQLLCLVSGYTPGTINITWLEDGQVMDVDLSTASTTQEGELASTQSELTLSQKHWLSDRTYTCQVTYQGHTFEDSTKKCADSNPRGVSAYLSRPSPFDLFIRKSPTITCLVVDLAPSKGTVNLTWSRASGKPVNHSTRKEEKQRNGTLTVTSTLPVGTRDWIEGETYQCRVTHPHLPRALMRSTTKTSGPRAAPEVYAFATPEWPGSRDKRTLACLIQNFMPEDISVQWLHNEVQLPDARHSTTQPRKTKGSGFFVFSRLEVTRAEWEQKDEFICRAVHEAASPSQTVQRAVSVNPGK
Description: (§2) Measurements were carried out using the following three types of running buffers:
(§3) An appropriate concentration of human IgE was injected and captured by the biotinylated GPC3 peptide to immobilize human IgE on the chip. […] Then, 10 mmol/L glycine-HCl (pH 1.5) was injected to regenerate the sensor chip. All of the assay for the interaction was performed at 37° C. Using Biacore T200 Evaluation Software (GE Healthcare), the assay results were analyzed by curve fitting to determine the binding rate constant ka (1/Ms) and dissociation rate constant kd (1/s). Dissociation constant KD (M) was calculated from the above constants.

[9] = biological target: T8, human IgE; assay: SPR (Biacore T200), human IgE held on SA chip by biotinylated GPC3 peptide, antibody as analyte, 37 C; pH5.8, 1.2 mM Ca; pH 5.8
Description: as §2, §3

[10] = biological target: T8, human IgE; assay: SPR (Biacore T200), human IgE held on SA chip by biotinylated GPC3 peptide, antibody as analyte, 37 C; pH7.4, 1.2 mM Ca; pH 7.4
Description: as §2, §3

[11] = biological target: T8, human IgE; assay: SPR (Biacore T200), human IgE held on SA chip by biotinylated GPC3 peptide, antibody as analyte, 37 C; pH7.4, 1.2 mM Ca; pH7.4, 1.2 mM Ca; 37 C; pH 7.4
Description: as §2, §3

T1 sequence (P12314 16-292): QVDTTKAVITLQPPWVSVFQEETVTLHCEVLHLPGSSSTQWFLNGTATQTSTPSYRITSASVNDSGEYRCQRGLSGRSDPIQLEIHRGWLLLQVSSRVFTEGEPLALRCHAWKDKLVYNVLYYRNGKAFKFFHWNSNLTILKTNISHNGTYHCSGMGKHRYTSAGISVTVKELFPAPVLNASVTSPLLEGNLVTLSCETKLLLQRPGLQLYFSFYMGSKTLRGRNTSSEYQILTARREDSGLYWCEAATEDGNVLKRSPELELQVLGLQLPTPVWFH

- relative binding activity [1]: 104 % of IL6R-BF648/IL6R-L
- relative binding activity [2]: 449 % of IL6R-BF648/IL6R-L
- relative binding activity [3]: 188 % of IL6R-BF648/IL6R-L
- relative binding activity [4]: 164 % of IL6R-BF648/IL6R-L
- relative binding activity [5]: 157 % of IL6R-BF648/IL6R-L
B1: IL6R-BP198/IL6R-L (antibody, human IgG1, kappa)
heavy: QVQLQESGPGLVKPSETLSLTCAVSGHSISHDHAWSWVRQPPGEGLEWIGFISYSGITNYNPSLQGRVTISRDNSKNTLYLQMNSLRAEDTAVYYCARSLARTTAMDYWGEGTLVTVSSASTKGPSVFPLAPSSKSTSGGTAALGCLVKDYFPEPVTVSWNSGALTSGVHTFPAVLQSSGLYSLSSVVTVPSSSLGTQTYICNVNHKPSNTKVDKKVEPKSCDKTHTCPPCPAPDYLGGDSVFLFPPKPKDTLMISRTPEVTCVVVDVSDEDGEVKFNWYVDGVEVHNAKTKPREEQYNSTYRVVSVLTVLHQDWLNGKEYKCKVSNAALPKPIEKTISKAKGQPREPQVYTLPPSRDELTKNQVSLTCLVKGFYPSDIAVEWESNGQPENNYKTTPPVLDSDGSFFLYSKLTVDKSRWQQGNVFSCSVMHEALHNHYTQESLSLSP
light: not shown
notes: EU numbering; alterations on IL6R-B3; copies: 2 + 2

- relative binding activity [6]: 100 IL6R-F652/IL6R-L = 100
- relative binding activity [7]: 100 IL6R-F652/IL6R-L = 100
B2: IL6R-F652/IL6R-L (antibody, human IgG1, kappa)
heavy: B1 heavy with D235E, Y236L, M254Y, D270H, G273P, A328K, K332A, N436Y, E441K
light: not shown
notes: IL6R-F11 with P238D (EU numbering); copies: 2 + 2

- koff [8]: 0.24 s⁻¹
- kon [8]: 62000 M⁻¹ s⁻¹
- koff [9]: 0.23 s⁻¹
- kon [9]: 120000 M⁻¹ s⁻¹
- koff [10]: 0.0036 s⁻¹
- kon [11]: 1.5e+06 M⁻¹ s⁻¹
B3: 278-IgG1 (antibody, V domains shown)
VH: QSLEESGGRLVTPGTPLTLTCTASGFSLSSYHMSWVRQAPGKGLEWIGVINSAGNTYYASWAKGRFTVSKTSTTVDLNLTSLTTEDTATYFCARYVFSSGSHDIWGPGTLVTVSS
VL: AYDMTQTPASVEVAVGGTVTIKCQASQSIGSWLAWYQQKPGQPPKELIYGTSTLESGVPSRFIGSGSGTEFTLTISGVECADAATYYCQQGYSEDNIDNAFGGGTEVVVKR
notes: pH-dependent anti-human IgE antibody
